From publication PMC9284731

How the values were obtained:
[1] = tested on: RBP10 fragment with only 10 residues C-terminal to the RRM (Trypanosoma brucei); assay: EMSA; settings: binding buffer for gel shifts not in material (only protein buffers: elution 50 mM NaH2PO4, 300 mM NaCl, 250 mM imidazole, pH 8.0); sometimes dialyzed to 10 mM …; scale: affinity relative to P1
[2] = tested on: RBP10 fragment with no residues C-terminal to the RRM (Trypanosoma brucei); assay: EMSA; settings: binding buffer for gel shifts not in material (only protein buffers: elution 50 mM NaH2PO4, 300 mM NaCl, 250 mM imidazole, pH 8.0); sometimes dialyzed to 10 mM …; scale: affinity relative to P1

Substance	binding signal [1]	binding signal [2]
probe with two copies of UA(U)6	< 0.1	< 0.1
probe with two copies of UACUCUCU (mutant)	< 0.1	< 0.1
